{
  "source": "paper PMC6128652",
  "about": "“Structure of the Cladosporium fulvum Avr4 effector in complex with (GlcNAc)6 reveals the ligand-binding mechanism and uncouples its intrinsic function from recognition by the Cf-4 resistance protein” (PLoS Pathogens, 2018)",
  "molecules": {"B1": {"name": "WT-CfAvr4: wild-type Avr4 effector protein of Cladosporium fulvum, CBM14 chitin-binding lectin, E. coli-produced mature form Lys30-Gln115 (protein)", "chain": "KAPKTQPYNPCKPQEVIDTKCMGPKDCLYPNPDSCTTYIQCVPLDEVGNAKPVVKPCPKGLQWNDNVGKKWCDYPNLSTCPVKTPQ", "modifications": "left off: 6x His (two), N-terminal, cleaved"}},
  "key": {"[1]": {"assay": "Isothermal titration calorimetry (ITC) of CfAvr4 variants with chitin hexasaccharide", "assay_type": "binding", "details": "compared with PfAvr4", "procedure": "A stock solution of the monomer of N-acetylglucosamine was prepared by dissolving the dry powder in a buffer containing 10 mM Bis-Tris, pH 6.5, 100 mM NaCl to a concentration of 0.100 g/L using analytic techniques. Standard solution of 0, 0.010, 0.025, 0.050, 0.075 g/L were prepared by serial dilutions. Using glass test tubes and pipets, 100 μL of each standard was mixed with 300μL of concentrated sulfuric acid and vortexed for 10 sec to mix. Solutions were incubated at RT for 10 min and then placed on ice to stop the reaction. […] Analytically prepared solution of the di- and tri-saccharide scaled linearly to the calibration curve. To determine the concentration of the chitin hexasaccharide solutions used in ITC, the solutions were diluted into the dynamic range of the calibration curve (S12 Fig) and subjected to the above procedure.\nAll ITC experiments were performed on a TA Instruments low volume NanoITC with a 186uL reaction cell and a reference cell filled with degassed Milli-Q grade water. Reactions were run in a buffer containing 10mM Bis-Tris, pH 6.5, 100 mM NaCl. The reservoir solution was filled with protein solution and continuously stirred while Chitin hexasaccharide solutions titrated in 2.5μL aliquots for 19 injections, with an initial 1μL injection, for a total injection volume of 48.5μL. The carbohydrate solutions were made by dissolving the dry powder in buffer to a concentration of 20mM (confirmed using methods described above) and then diluted to the working concentration using the final buffer exchange flow through to match the buffers as closely as possible. The integrated heats, after correction for the heat of dilution were analyzed using the NanoAnalyze software from […]. An individual binding site model was used to fit the binding isotherm. All experiments were replicated a minimum of three times."}, "[2]": {"tested_on": "germlings of Trichoderma viride", "assay": "In vitro protection assay of T. viride germlings against chitinases", "assay_type": "cell-based", "details": "5 μM protein with chitinases and β-1,3-glucanases", "procedure": "The ability of the WT-CfAvr4 and of ChBD mutants to protect against chitinases was evaluated in in vitro protection assays conducted as described before. Briefly, spores of T. viride (3∙10^3) were pre-germinated overnight at room temperature in 100 μl of half-strength PDB medium in 96 well plates. The following day, 5 μM of WT-CfAvr4 or ChBD mutants were mixed with 7.5 units of Zymolyase (Zymo Research cat. no. E1004) and 0.2 units of bacterial chitinases (Sigma-Aldrich cat. no. C6137) and the mixture was added to the microtitre plate wells containing the pre-germinated spores in a final volume of 150 μl. Plates were incubated at 25°C for 6–8 h before evaluating under the microscope fungal growth and the ability of the proteins to provide protection against chitinases. Zymolase has β-1,3 glucanase and β-1,3-glucan laminaripentaohydrolase activity and is added to the mixture in order to remove the surface glucans from the fungal cell wall and thus expose the underlying chitin layer."}, "Cf-4 immune receptor": {"tested_on": "Cf-4 immune receptor", "assay": "Pure protein infiltrations into tomato leaves of cv Purdue 135 (+ Cf-4), hypersensitive response", "assay_type": "in vivo", "details": "both 5 μg/ml and 10 μg/ml, 5 dpi", "from_the_text": "Tomato seeds were obtained from the Tomato Genetic Resource Center (TGRC) at UC Davis. WT-CfAvr4 and mutants thereof with single point mutations at selected amino acids were produced and purified from E. coli Rosetta-gami B cells as description above. […]"}, "[3]": {"tested_on": "tomato leaves of cv Moneymaker (–Cf-4)", "assay": "Pure protein infiltrations into tomato leaves of cv Moneymaker (–Cf-4), hypersensitive response", "assay_type": "in vivo", "procedure": "Tomato seeds were obtained from the Tomato Genetic Resource Center (TGRC) at UC Davis. WT-CfAvr4 and mutants thereof with single point mutations at selected amino acids were produced and purified from E. coli Rosetta-gami B cells as description above. Proteins were infiltrated at a concentration of 5 μg/mL and 10 μg/mL into the back side of MM or Purdue 135 tomato leaves using a one mL syringe and the HR response was recorded at 6 days post-infiltrations."}, "Cf-4": {"tested_on": "Cf-4", "assay": "Agrobacterium tumefaciens transient transformation assay (ATTA): co-expression with Cf-4 in Nicotiana benthamiana leaves", "assay_type": "in vivo", "details": "N. benthamiana, three cell density ratios 0.5:1, 1:1, 2:1", "procedure": "The Agrobacterium tumefaciens transient transformation assay (ATTA) was used for the transient co-expression into leaves of Nicotiana benthamiana of Cf-4 with the WT-CfAvr4 and the mutants thereof tested in this study. Briefly, N. benthamiana plants were grown in a growth chamber with 16 h of artificial light and 70% humidity, at 25°C for 4 weeks. The true mature form of the WT-CfAvr4 (i.e. between Lys30-Gln115) and of the mutants thereof were singly cloned into the binary expression vector pICH47742 downstream of the PR1A signal sequence of Nicotiana tabacum for targeted secretion into the apoplast, and under the control of CaMV 35S promoter and NOS terminator. The tomato Cf-4 was cloned into pMOG800 as descripted before. Binary vector plasmids were transformed into A. tumefaciens strain GV3101 by electroporation. For the ATTA assay, agrobacteria transformed with pMOG800:Cf-4 was grown in 10mL LB-mannitol medium (LB medium with 10 g/L mannitol) amended with 50 μg/mL kanamycin and 25 μg/mL rifampicin, whereas agrobacteria transformed with pICH47742:WT-CfAvr4 or pICH4774:CfAvr4-mutants were grown in LB-mannitol amended with 100 μg/mL carbenicillin and 25 μg/mL rifampicin. All cultures were incubated at 28°C for 2 days, after which period they were pelleted at 2800g for 15 min, re-suspended in MMAi medium (5 g/L Murashige and Skoog basal salts, 20 g/L sucrose, 10 mM MES, and […]) at an optical cell density (A600) of 2.0, and further incubated for 2–4 h at room temperature. Agroinfiltrations were performed by mixing agrobacteria containing pMOG800:Cf-4 with agrobacteria containing pICH47742_WT-CfAvr4 or pICH47742:CfAvr4-mutants at three different ratios of optical cell densities, i.e. A6000.5:A6001.0, A6000.5:A6000.5, and A6000.5:A6000.25 of. The mixture of agrobacteria was infiltrated into the leaves of N. benthamiana plants using a 1 mL syringe and the induction of an HR in the infiltrated leaf sectors was evaluated at 5 days post-infiltrations. Control infiltrations were made using only the pMOG800:Cf-4 transformed agrobacteria and the agrobacteria containing pICH47742:CfAvr4 or the mutants thereof without mixing the two cultures, at cell densities of A6000.25, A6000.5, and A6001.0."}, "subtilisin": {"tested_on": "subtilisin", "assay": "Subtilisin treatment (resistance against proteolytic degradation)", "assay_type": "in vitro ADME", "set-up": "key to Stability (Subtilisin assay): S: stable; PU: partially unstable", "details": "500 ng/μL subtilisin, 30 min, room temperature", "procedure": "The WT-CfAvr4 and selected mutants thereof were exposed to the non-specific protease subtilisin in order to determine their resistance against proteolytic degradation. Treatments with subtilisin were made as previously described with minor modifications. Briefly, 40 μM of the E. coli-produced CfAvr4 and the selected CfAvr4 mutants were mixed with 10 mM of calcium chloride and 500 ng/μL of subtilisin (Sigma-Aldrich) in a total volume of 15 μL. Samples were incubated for 30 min at room temperature, after which period they were denatured by mixing with 10 mM PMSF and SDS-PAGE loading buffer, and heating at 98°C for 10 min. Digestion products were visualized on an SDS-PAGE after staining with Coomassie blue."}},
  "note": "Entries after “also recorded” stand apart in the source; their conditions may differ.",
  "data": [
    {"molecule": "B1", "values": [
      {"measurement": "higher binding affinity for (GlcNAc)6 than PfAvr4", "setting": "[1]", "result": 10, "unit": "fold"},
      {"measurement": "morphology of hyphae after chitinase treatment", "setting": "[2]", "result": "remained morphologically intact"},
      {"measurement": "protection of fungal hyphae against chitinases, fungal growth", "setting": "[2]; 6–8 h", "result": "enabled fungal growth and survival; also recorded: able to protect hyphae"},
      {"measurement": "Cf-4-mediated HR after protein infiltration", "setting": "Cf-4 immune receptor", "result": "strong and equal in intensity HR; also recorded: strong hypersensitive response (HR); also recorded: strong and equally in intensity necrosis"},
      {"measurement": "HR after protein infiltration", "setting": "[3]", "result": "none of the mutants or the WT-CfAvr4 induced an HR; also recorded: None of the proteins, WT-CfAvr4 or mutants, elicited an HR"},
      {"measurement": "HR on transient co-expression with Cf-4", "setting": "Cf-4", "result": "strong and similar in intensity HR"},
      {"measurement": "Stability (Subtilisin assay)", "setting": "subtilisin", "result": "S"}
    ]}
  ]
}
